From PMC9976406, “ANGPTL2 binds MAG to efficiently enhance oligodendrocyte differentiation” (Cell & Bioscience, 2023)

Experiments:
LILRB2 (Homo sapiens) = LILRB2 (Homo sapiens) (UniProt Q8N423); conditions: cited from earlier work
[1] = biological target: ANGPTL2-Flag (angiopoietin-like protein 2) (UniProt Q9UKU9); assay: flow cytometry on cells; conditions: MAG constructs expressed on 293T cells; ANGPTL2 row of plots (representative plot; n = 3 in panel H); parent: 41.7
[2] = biological target: T1, ANGPTL2-Flag (angiopoietin-like protein 2), Q9UKU9; assay: flow cytometry on cells; conditions: chain shown with the change; MAG constructs expressed on 293T cells; ANGPTL2 row of plots (representative plot; n = 3 in panel H); parent: 41.7
T1 chain: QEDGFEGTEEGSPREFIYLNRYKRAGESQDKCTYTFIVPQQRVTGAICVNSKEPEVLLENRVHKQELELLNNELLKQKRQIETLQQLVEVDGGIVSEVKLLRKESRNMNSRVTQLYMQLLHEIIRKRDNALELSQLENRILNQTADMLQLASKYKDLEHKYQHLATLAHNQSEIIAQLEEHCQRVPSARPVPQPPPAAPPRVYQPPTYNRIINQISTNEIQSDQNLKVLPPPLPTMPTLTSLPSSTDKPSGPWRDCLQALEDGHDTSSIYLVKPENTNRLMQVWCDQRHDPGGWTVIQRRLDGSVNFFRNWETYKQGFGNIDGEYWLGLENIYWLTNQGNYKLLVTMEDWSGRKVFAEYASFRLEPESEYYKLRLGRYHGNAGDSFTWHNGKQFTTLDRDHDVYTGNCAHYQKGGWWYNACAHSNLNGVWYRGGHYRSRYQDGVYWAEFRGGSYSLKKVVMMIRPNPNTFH

[3] = biological target: human MAG-ECD-FC (extracellular domain of human MAG fused with human Fc) (human) (UniProt P20916); assay: SPR; Biacore T200, CM5 chip; MAG-hFc from conditioned medium captured by pre-immobilised anti-hFc antibody; purified ANGPTL2 injected at indicated doses
[4] = biological target: human MAG-ECD-FC (extracellular domain of human MAG fused with human Fc) (human) (UniProt P20916); assay: BLI; Octet RED96/RED96e; MAG-hFc from conditioned medium loaded on AHC biosensors; purified ANGPTL2 at indicated doses in kinetics buffer
[5] = biological target: T2, murine MAG-ECD-Fc (extracellular domain of murine MAG fused with human Fc) (murine, UniProt P20917 20-516); assay: SPR; Biacore T200, CM5 chip; MAG-hFc from conditioned medium captured by pre-immobilised anti-hFc antibody; purified ANGPTL2 injected at indicated doses; conditions: one partner purified
T2 construct: myelin-associated glycoprotein (MAG), murine, extracellular domain (ECD); also called mouse MAG-hFc; murine MAG-hFC; source: 293T, transfected, in conditioned medium
T2 sequence (looked up): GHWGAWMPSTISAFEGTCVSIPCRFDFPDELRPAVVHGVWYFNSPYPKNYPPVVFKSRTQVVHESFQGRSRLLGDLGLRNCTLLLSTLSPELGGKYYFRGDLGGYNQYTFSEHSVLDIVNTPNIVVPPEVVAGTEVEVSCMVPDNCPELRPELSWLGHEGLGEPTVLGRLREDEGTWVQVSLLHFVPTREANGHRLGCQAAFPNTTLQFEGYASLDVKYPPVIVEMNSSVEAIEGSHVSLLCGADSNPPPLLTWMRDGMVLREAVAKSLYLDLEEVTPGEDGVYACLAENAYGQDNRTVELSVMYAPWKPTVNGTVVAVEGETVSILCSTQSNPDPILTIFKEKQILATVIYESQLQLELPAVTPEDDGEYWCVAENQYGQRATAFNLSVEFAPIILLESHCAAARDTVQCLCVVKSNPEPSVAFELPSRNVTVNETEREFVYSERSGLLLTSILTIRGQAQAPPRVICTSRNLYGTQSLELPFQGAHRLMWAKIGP

[6] = biological target: T2, murine MAG-ECD-Fc (extracellular domain …); assay: BLI; Octet RED96/RED96e; MAG-hFc from conditioned medium loaded on AHC biosensors; purified ANGPTL2 at indicated doses in kinetics buffer; conditions: one partner purified

Sequence of LILRB2 (Homo sapiens) (Q8N423 22-460): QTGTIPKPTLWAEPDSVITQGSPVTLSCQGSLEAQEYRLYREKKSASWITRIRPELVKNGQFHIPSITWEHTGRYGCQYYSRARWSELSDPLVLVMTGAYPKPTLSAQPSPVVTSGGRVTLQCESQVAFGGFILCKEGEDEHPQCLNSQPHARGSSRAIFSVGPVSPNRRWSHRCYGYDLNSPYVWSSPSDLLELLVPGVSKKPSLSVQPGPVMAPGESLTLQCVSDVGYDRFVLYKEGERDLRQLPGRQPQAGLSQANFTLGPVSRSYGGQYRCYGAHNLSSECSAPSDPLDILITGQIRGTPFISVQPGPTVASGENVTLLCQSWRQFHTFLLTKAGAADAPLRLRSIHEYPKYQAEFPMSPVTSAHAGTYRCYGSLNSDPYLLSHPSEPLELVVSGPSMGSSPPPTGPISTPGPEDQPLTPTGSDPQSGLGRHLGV

For ANGPTL2 (from UniProt Q9UKU9), the Kd (LILRB2 (Homo sapiens)) is listed as 5.5 nM.

Work on “human MAG (myelin-associated glycoprotein), full-length, fused with EGFP (N1-hMAG-EGFP) (from UniProt P20916) G389D; Y341A” yielded a response (% of EGFP+ cells binding ANGPTL2) [1] of 0.33.

B1: human MAG (myelin-associated glycoprotein), full-length, fused with EGFP (N1-hMAG-EGFP), P20916 G301D; Y303A (protein)
chain: GHWGAWMPSSISAFEGTCVSIPCRFDFPDELRPAVVHGVWYFNSPYPKNYPPVVFKSRTQVVHESFQGRSRLLGDLGLRNCTLLLSNVSPELGGKYYFRGDLGGYNQYTFSEHSVLDIVNTPNIVVPPEVVAGTEVEVSCMVPDNCPELRPELSWLGHEGLGEPAVLGRLREDEGTWVQVSLLHFVPTREANGHRLGCQASFPNTTLQFEGYASMDVKYPPVIVEMNSSVEAIEGSHVSLLCGADSNPPPLLTWMRDGTVLREAVAESLLLELEEVTPAEDDVAACLAENAYGQDNRTVGLSVMYAPWKPTVNGTMVAVEGETVSILCSTQSNPDPILTIFKEKQILSTVIYESELQLELPAVSPEDDGEYWCVAENQYGQRATAFNLSVEFAPVLLLESHCAAARDTVQCLCVVKSNPEPSVAFELPSRNVTVNESEREFVYSERSGLVLTSILTLRGQAQAPPRVICTARNLYGAKSLELPFQGAHRLMWAKIGPVGAVVAFAILIAIVCYITQTRRKKNVTESPSFSAGDNPPVLFSSDFRISGAPEKYESERRLGSERRLLGLRGEPPELDLSYSHSDLGKRPTKDSYTLTEELAEYAEIRVK
B1 gave a response (% of EGFP+ cells binding ANGPTL2) [2] of 0.61.

B2: ANGPTL2-Flag (angiopoietin-like protein 2) (ligand, UniProt Q9UKU9 23-493, looked up)
chain: T1 chain
notes: angiopoietin-like protein 2 (ANGPTL2), secreted into the conditioned medium of 293T cells; The same ANGPTL2-Flag was used on human and murine MAG; also called purified ANGPTL2 protein; source: 293T, transfected with CMV-ANGPTL2-Flag; conditioned medium collected after 48 h, or purified from it with M2 resin
Work on B2 yielded a Kd [3] of 6.47 nM, a Kd [4] of 9.34 nM and a Kd [5] of 3.08 nM. The Kd [6] was 16.4 nM.
